This passage reports stoichiometry N results from PMC9349299.

The target of experiment [1] is AvmM (Streptomyces sp. TP-A0867). In words: SEC; HiLoad 16/600 Superdex 200 pg, 50 mM NaCl, 20 mM Tris pH 8.0, 4 °C, 1 mL/min; calibrated with cytochrome c, ovalbumin, aldolase, ferritin.
For experiment [2] the target is unchanged. In words: crystal structure; sitting drop, 22 °C; protein 10 mg/mL in 50 mM NaCl, 20 mM Tris pH 8.0; reservoir 0.2 M magnesium acetate, 0.1 M sodium cacodylate pH 6.5, 20% PEG 8000; apo AvmM at 2.09 Å and AvmM with product 2 at 2.5 Å.

As for AvmM (enzyme), the stoichiometry N in experiment [1] and in experiment [2] was 3 each time.
